This note sets out measurements from patent US20160279215A1, “NOVEL PEPTIDES AND COMBINATION OF PEPTIDES FOR USE IN IMMUNOTHERAPY AGAINST VARIOUS TUMORS” (immatics biotechnologies GmbH, priority 2015, published 2016).

In one assay the target is T1, HLA-A*02:01 (human).
T1 construct: MHC monomers captured on streptavidin plates; the UV-sensitive peptide is cleaved and exchanged with the test peptide; also called peptide-receptive MHC molecules; MHC class I
Kind of assay: UV ligand-exchange ELISA (anti-b2m); +++ = exchange yield >=50.
Conditions: not given
An excerpt:
Candidate peptides for T cell based therapies according to the present invention were further tested for their MHC binding capacity (affinity). The individual peptide-MHC complexes were produced by UV-ligand exchange, where a UV-sensitive peptide is cleaved upon UV-irradiation, and exchanged with the peptide of interest as analyzed. Only peptide candidates that can effectively bind and stabilize the peptide-receptive MHC molecules prevent dissociation of the MHC complexes. To determine the yield of the exchange reaction, an ELISA was performed based on the detection of the light chain (β2m) of stabilized MHC complexes. The assay was performed as generally described in Rodenko et al. (Rodenko et al., 2006).
96 well MAXISorp plates (NUNC) were coated over night with 2 ug/ml streptavidin in PBS at room temperature, washed 4× and blocked for 1 h at 37° C. in 2% BSA containing blocking buffer. Refolded HLA-A*02:01/MLA-001 monomers served as standards, covering the range of 15-500 ng/ml. Peptide-MHC monomers of the UV-exchange reaction were diluted 100 fold in blocking buffer. Samples were incubated for 1 h at 37° C., washed four times, incubated with 2 ug/ml HRP conjugated anti-β2m for 1 h at 37° C., washed again and detected with TMB solution that is stopped with […]. Absorption was measured at 450 nm. Candidate peptides that show a high exchange yield (preferably higher than 50%, most preferred higher than 75%) are generally preferred for a generation and production of antibodies or fragments thereof, and/or T cell receptors or fragments thereof, as they show sufficient avidity to the MHC molecules and prevent dissociation of the MHC complexes.
(In an ELISA, binding on a coated surface is turned into a signal by an enzyme label.)
Molecule QLGPVPVTI displayed a peptide exchange yield of 50 to 75%. Same read-out and setting: the figure for VIFEGEPMYL (also called HORMAD1-001) is 50 to 75%; for RLLDPKTIFL it is 50 to 75%; for SLLDYEVSI it is 50 to 75%. Same read-out and setting: next, FLISQTPLL: 50 to 75%; KLVELEHTL (also called CT83-001): 50 to 75%; SLADLSLLL: 50 to 75%. Same read-out and setting: next, TLGEIIKGV: 50 to 75%; LLWDAPAKC: 50 to 75%; QLREAFEQL: 50 to 75%.

With RLIDIYKNV, the peptide exchange yield was 50 to 75%. Consider YLDPLWHQL, for which the peptide exchange yield was in the range of 50 to 75%.

Molecule FLDSQITTV had a peptide exchange yield of 50 to 75%. RLHDENILL: the peptide exchange yield was in the range of 50 to 75%. The molecule AALEVLAEV came in with a peptide exchange yield of 50 to 75%. Consider ALEEKLENV, for which the peptide exchange yield is 50 to 75%. For the molecule TLQEWLTEV, the peptide exchange yield fell in the range of 50 to 75%. As to ILAQDVAQL, the peptide exchange yield lay in the range of 50 to 75%. Take GLLGNLLTSL: the peptide exchange yield is 50 to 75%.

For ALINVLNAL, the peptide exchange yield was in the range of 50 to 75%. As for VLLDMVHSL, the peptide exchange yield was 50 to 75%. Still for that read-out and setting: next, SLLDLVQSL: 50 to 75%; RLYEEEIRI: 50 to 75%. As for YLILSSHQL, the peptide exchange yield was 50 to 75%.

For the molecule ALLNNVIEV, the peptide exchange yield lay within 50 to 75%.

In the case of ALADLSVAV, the peptide exchange yield lay within 50 to 75%. On the same count and under the same terms, the figure for IILENIQSL is 50 to 75%.

Turning to MLWESIMRV, the peptide exchange yield is 50 to 75%.

Consider SIIDTELKV, for which the peptide exchange yield was 50 to 75%. Same read-out and setting: the figure for SLYPHFTLL is 50 to 75%; for AQLEGKLVSI it is 50 to 75%; for MLIIRVPSV it is 50 to 75%.

GLLSALENV: the peptide exchange yield lay in the range of 50 to 75%.

Regarding YTFSGDVQL (also called MMP1-003), the peptide exchange yield is 50 to 75%. On the same count and under the same terms, next, QLYGSAITL: 50 to 75%; LVVDEGSLVSV (also called …): 50 to 75%.

Turning to LLGDSSFFL, the peptide exchange yield is 50 to 75%.

The target of the next assay is T2, HLA-A*02:01 (Homo sapiens, UniProt P04439, D140Y/D185E/D98H/E176V/E277Q/G131W/G231S/I119V/I121R/I166T/I218V/L300P/L318F/N151K/N90K/P208A/P217A/Q86G/Q94H/R138H/R169H/T345S).
T2 construct: made in house
Description: MHC binding assay: UV-ligand exchange with β2m ELISA (peptide exchange yield). The settings on record: binding to HLA-A*02:01 evaluated by peptide exchange yield (UV-ligand exchange, β2m ELISA). Summed up: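 Binding capacity is expressed as the yield of UV-mediated ligand exchange, reflecting how well each peptide stabilizes peptide-receptive MHC. Stabilized complexes are read out by anti-β2m HRP ELISA (450 nm) after streptavidin capture, with refolded MLA-001 monomer standards for quantitation.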
For the molecule “131 (SLYPHFTLL; listed as Homo sapiens) [compound 131]”, the Peptide exchange entry is “+++ (≧50 = +++)”. Turning to “47 (GLNGFNVLL; listed as Homo sapiens) [compound 47]”, the Peptide exchange result was “+++ (≧50 = +++)”. Same read-out and setting: next, “262 (LLLEAVWHL; listed as Homo sapiens) [compound 262]”: “+++ (≧50 = +++)”; “68 (QLMNLIRSV; listed as Homo sapiens) [compound 68]”: “+++ (≧50 = +++)”. Same read-out and setting: the entry for “221 (IMLNSVEEI; listed as Homo sapiens) [compound 221]” is “++ (≧20% = ++)”. In the case of “174 (ALYSGDLHAA; listed as Homo sapiens) [compound 174]”, the Peptide exchange entry is given as “++ (≧20% = ++)”. For “44 (AVFNLVHVV; listed as Homo sapiens) [compound 44]”, the Peptide exchange entry is “+++ (≧50 = +++)”. Turning to “148 (YLILSSHQL; listed as Homo sapiens) [compound 148]”, the Peptide exchange result is “+++ (≧50 = +++)”.

Consider “124 (ALLLRLFTI; listed as Homo sapiens) [compound 124]”, for which the Peptide exchange result is on record as “++ (≧20% = ++)”. Still for that read-out and setting: the entry for “96 (ALDTTRHEL; listed as Homo sapiens) [compound 96]” is “++ (≧20% = ++)”; for “213 (ILAVDGVLSV; listed as Homo sapiens) [compound 213]” it is “+++ (≧50 = +++)”; for “91 (LLPSIFLMV; listed as Homo sapiens) [compound 91]” it is “++ (≧20% = ++)”. “160 (TLQEWLTEV; listed as Homo sapiens) [compound 160]”: the Peptide exchange result was “+++ (≧50 = +++)”.

Turning to “229 (YLYELEHAL; listed as Homo sapiens) [compound 229]”, the Peptide exchange result is given as “++ (≧20% = ++)”. Still for that read-out and setting: the entry for “239 (VIIKGLEEITV; listed as Homo sapiens) [compound 239]” is “+++ (≧50 = +++)”; for “112 (ILAQDVAQL; listed as Homo sapiens) [compound 112]” it is “+++ (≧50 = +++)”; for “81 (ILAEEPIYI; listed as Homo sapiens) [compound 81]” it is “++ (≧20% = ++)”. Still for that read-out and setting: next, “39 (YLEDGFAYV; listed as Homo sapiens) [compound 39]”: “+++ (≧50 = +++)”. “13 (RLHDENILL; listed as Homo sapiens) [compound 13]”: the Peptide exchange result is “+++ (≧50 = +++)”. Still for that read-out and setting: next, “216 (ALSTVTPRI; listed as Homo sapiens) [compound 216]”: “++ (≧20% = ++)”. Still for that read-out and setting: next, “59 (ALADGIKSFLL; listed as Homo sapiens) [compound 59]”: “+++ (≧50 = +++)”; “62 (SLVENIHVL; listed as Homo sapiens) [compound 62]”: “+++ (≧50 = +++)”.
